Data: doi:10.1101/2024.12.03.626531, “Lineage–specific amino acids define functional attributes of the protomer-protomer interfaces for the Rad51 and Dmc1 recombinases” (bioRxiv, 2024)

Biological target: the molecule itself
Test: cryo-EM structure; helical filament: ScDmc1 5 µM with 0.25 µM 96-mer ssDNA in HR buffer supplemented with 1.5 mM CaCl2, 30°C for 5 minutes; 8 mM CHAPSO added before freezing

B1: S. cerevisiae Dmc1 (natural protein, UniProt P25453 1-334, looked up)
chain: MSVTGTEIDSDTAKNILSVDELQNYGINASDLQKLKSGGIYTVNTVLSTTRRHLCKIKGLSEVKVEKIKEAAGKIIQVGFIPATVQLDIRQRVYSLSTGSKQLDSILGGGIMTMSITEVFGEFRCGKTQMSHTLCVTTQLPREMGGGEGKVAYIDTEGTFRPERIKQIAEGYELDPESCLANVSYARALNSEHQMELVEQLGEELSSGDYRLIVVDSIMANFRVDYCGRGELSERQQKLNQHLFKLNRLAEEFNVAVFLTNQVQSDPGASALFASADGRKPIGGHVLAHASATRILLRKGRGDERVAKLQDSPDMPEKECVYVIGEKGITDSSD
notes: Dmc1 meiotic recombinase, Saccharomyces cerevisiae, full-length wild type; Helical filament on a 96-nt ssDNA with ATP; 6.35 monomers per turn; Expressed as 6XHis-ScDmc1; no removal of the tag is described; also called ScDmc1; yeast Dmc1; source: E. coli BL21 (DE3) Rosetta2, purified (Talon resin, heparin sepharose)
  binding result: binds
